Laboratory results taken from IntAct's records for PubMed 10646860.

B1: Apoptosis-stimulating of p53 protein 2 (Homo sapiens), Q13625 (parent)
chain: MMPMFLTVYLSNNEQHFTEVPVTPETICRDVVDLCKEPGESDCHLAEVWCGSERPVADNERMFDVLQRFGSQRNEVRFFLRHERPPGRDIVSGPRSQDPSLKRNGVKVPGEYRRKENGVNSPRMDLTLAELQEMASRQQQQIEAQQQLLATKEQRLKFLKQQDQRQQQQVAEQEKLKRLKEIAENQEAKLKKVRALKGHVEQKRLSNGKLVEEIEQMNNLFQQKQRELVLAVSKVEELTRQLEMLKNGRIDSHHDNQSAVAELDRLYKELQLRNKLNQEQNAKLQQQRECLNKRNSEVAVMDKRVNELRDRLWKKKAALQQKENLPVSSDGNLPQQAASAPSRVAAVGPYIQSSTMPRMPSRPELLVKPALPDGSLVIQASEGPMKIQTLPNMRSGAASQTKGSKIHPVGPDWSPSNADLFPSQGSASVPQSTGNALDQVDDGEVPLREKEKKVRPFSMFDAVDQSNAPPSFGTLRKNQSSEDILRDAQVANKNVAKVPPPVPTKPKQINLPYFGQTNQPPSDIKPDGSSQQLSTVVPSMGTKPKPAGQQPRVLLSPSIPSVGQDQTLSPGSKQESPPAAAVRPFTPQPSKDTLLPPFRKPQTVAASSIYSMYTQQQAPGKNFQQAVQSALTKTHTRGPHFSSVYGKPVIAAAQNQQQHPENIYSNSQGKPGSPEPETEPVSSVQENHENERIPRPLSPTKLLPFLSNPYRNQSDADLEALRKKLSNAPRPLKKRSSITEPEGPNGPNIQKLLYQRTTIAAMETISVPSYPSKSASVTASSESPVEIQNPYLHVEPEKEVVSLVPESLSPEDVGNASTENSDMPAPSPGLDYEPEGVPDNSPNLQNNPEEPNPEAPHVLDVYLEEYPPYPPPPYPSGEPEGPGEDSVSMRPPEITGQVSLPPGKRTNLRKTGSERIAHGMRVKFNPLALLLDSSLEGEFDLVQRIIYEVDDPSLPNDEGITALHNAVCAGHTEIVKFLVQFGVNVNAADSDGWTPLHCAASCNNVQVCKFLVESGAAVFAMTYSDMQTAADKCEEMEEGYTQCSQFLYGVQEKMGIMNKGVIYALWDYEPQNDDELPMKEGDCMTIIHREDEDEIEWWWARLNDKEGYVPRNLLGLYPRIKPRQRSLA

Variants of: B1
Conditions: with apcl_human APC2, O95996
apcl_human APC2, O95996, sequence (O95996 whole entry): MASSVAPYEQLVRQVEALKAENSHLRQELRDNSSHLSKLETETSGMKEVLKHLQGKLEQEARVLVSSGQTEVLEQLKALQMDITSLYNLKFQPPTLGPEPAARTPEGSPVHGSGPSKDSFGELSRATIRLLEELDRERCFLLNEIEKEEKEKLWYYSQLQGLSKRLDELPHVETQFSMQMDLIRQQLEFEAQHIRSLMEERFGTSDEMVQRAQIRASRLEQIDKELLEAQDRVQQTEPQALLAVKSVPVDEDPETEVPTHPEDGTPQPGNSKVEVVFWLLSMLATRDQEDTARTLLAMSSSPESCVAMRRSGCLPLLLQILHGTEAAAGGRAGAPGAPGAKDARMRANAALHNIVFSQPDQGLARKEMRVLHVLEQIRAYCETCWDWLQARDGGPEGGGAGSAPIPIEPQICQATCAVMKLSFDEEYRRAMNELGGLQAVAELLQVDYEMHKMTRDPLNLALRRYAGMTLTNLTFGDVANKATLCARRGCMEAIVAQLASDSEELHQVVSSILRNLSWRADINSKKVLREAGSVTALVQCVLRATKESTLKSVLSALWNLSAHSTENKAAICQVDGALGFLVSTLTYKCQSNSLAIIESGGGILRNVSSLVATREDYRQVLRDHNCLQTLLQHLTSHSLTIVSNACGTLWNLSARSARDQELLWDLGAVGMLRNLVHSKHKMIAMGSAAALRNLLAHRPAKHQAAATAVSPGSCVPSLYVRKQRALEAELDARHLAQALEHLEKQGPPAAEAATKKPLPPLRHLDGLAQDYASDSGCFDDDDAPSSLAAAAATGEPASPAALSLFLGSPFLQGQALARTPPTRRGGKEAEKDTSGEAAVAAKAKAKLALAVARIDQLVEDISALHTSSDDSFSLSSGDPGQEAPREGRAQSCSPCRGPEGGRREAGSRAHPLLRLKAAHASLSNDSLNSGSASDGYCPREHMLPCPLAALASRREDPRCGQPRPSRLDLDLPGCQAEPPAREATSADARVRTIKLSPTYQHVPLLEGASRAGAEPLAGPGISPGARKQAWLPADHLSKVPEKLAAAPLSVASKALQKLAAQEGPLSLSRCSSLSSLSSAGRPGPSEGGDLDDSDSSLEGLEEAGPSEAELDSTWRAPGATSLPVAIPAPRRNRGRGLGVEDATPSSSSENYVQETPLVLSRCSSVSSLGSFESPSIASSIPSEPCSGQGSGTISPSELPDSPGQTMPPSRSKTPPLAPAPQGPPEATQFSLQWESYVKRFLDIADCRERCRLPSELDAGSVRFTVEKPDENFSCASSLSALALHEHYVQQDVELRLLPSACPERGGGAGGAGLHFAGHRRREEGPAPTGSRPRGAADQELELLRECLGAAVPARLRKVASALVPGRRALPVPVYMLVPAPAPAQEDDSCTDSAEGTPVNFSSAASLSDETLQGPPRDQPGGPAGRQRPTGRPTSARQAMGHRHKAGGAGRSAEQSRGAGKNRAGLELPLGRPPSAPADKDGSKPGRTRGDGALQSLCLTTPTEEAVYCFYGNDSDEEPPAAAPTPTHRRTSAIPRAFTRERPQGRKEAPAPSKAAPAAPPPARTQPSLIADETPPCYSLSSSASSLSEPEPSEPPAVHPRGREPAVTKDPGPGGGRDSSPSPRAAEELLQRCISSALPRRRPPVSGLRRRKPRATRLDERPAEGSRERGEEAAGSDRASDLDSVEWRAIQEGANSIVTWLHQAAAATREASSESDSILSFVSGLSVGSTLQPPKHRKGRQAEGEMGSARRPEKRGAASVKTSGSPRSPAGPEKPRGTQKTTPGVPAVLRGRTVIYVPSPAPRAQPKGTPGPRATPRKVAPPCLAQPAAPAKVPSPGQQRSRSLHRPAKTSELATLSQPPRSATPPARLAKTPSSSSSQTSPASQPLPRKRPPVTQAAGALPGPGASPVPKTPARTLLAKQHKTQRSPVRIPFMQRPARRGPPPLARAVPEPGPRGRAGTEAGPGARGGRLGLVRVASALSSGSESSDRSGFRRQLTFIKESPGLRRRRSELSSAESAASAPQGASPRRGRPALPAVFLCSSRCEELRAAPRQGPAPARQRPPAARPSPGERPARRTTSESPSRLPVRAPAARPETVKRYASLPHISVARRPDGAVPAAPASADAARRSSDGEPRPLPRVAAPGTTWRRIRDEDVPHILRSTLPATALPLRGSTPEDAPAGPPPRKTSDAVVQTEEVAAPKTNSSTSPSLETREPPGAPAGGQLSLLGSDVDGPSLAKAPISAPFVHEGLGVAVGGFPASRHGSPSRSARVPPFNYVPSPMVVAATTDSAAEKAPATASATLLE

effect of a mutation on the interaction | Variant
disrupting interaction strength | W1098K
